How the values were obtained:
[1] = tested on: perivascular fibrosis; assay: Permanent myocardial infarction model, perivascular fibrosis; format: in vivo, mouse; conditions: 25 mg/kg from 48 hrs after surgery; two weeks
Experimental: Studies evaluated the efficacy of SPHINGOMAB to reduce cardiac scar formation after permanent myocardial infarction (MI) via ligation of the left descending coronary artery in mice. Systemic administration of 25 mg/kg SPHINGOMAB or saline was initiated 48 hrs after surgery. Antibody administration at 48 hr. was chosen to allow normal, reparative scar formation to occur during the early remodeling phase and permit beneficial, S1P-stimulated angiogenesis immediately after the MI. Two weeks after the infarct, mice were sacrificed and fibrosis was accessed by Masson's trichrome staining of the cardiac tissue. […] As a control for any non-specific wound-healing responses, sham animals underwent thoracotomy without coronary artery ligation (FIG. 7E).

[2] = tested on: CNV lesions; assay: CNV animal model, murine vs humanized variants (Example 17); format: in vivo, mouse; conditions: 0.5 ug intravitreal Day 0 and Day 6; 14 days post laser; vs saline
Experimental: The humanized antibody variants and the murine antibody were compared for their ability to inhibit neo-vascularization in the CNV animal model of AMD as shown in FIG. 13. […] Mice were sacrificed 14 days post laser surgery. Control mice were treated with aqueous buffer (PBS) or an isotype-matched non-specific antibody. Three of the humanized variants inhibited angiogenesis essentially equivalently to the murine antibody as assessed by measurement of CNV area. CNV lesion volumes are represented as means±SEM. […]
The morphometric and volumetric CNV lesions were measured as follows. […]
Captured digital images were evaluated morphometrically using ImageJ software (Research Services Branch, National Institutes of Health, Bethesda, Md.). Images were split into separate RGB channels for analysis of the red and green channels as follows: 1) a calibration for the specific objective and microscope was applied to set the pixel-to-length ratio; 2) a threshold was applied using the Otsu algorithm; 3) images will be made binary; 4) a region-of-interest (ROI) was outlined to include the entire lesion area; 5) a particle analysis was performed to quantify the pixel area above the threshold level within the ROI. […]

[3] = tested on: VEGF- or bFGF-induced neovascularization; assay: In vivo Matrigel plug assay, VEGF or bFGF plugs, neovascularization; parameters: species or system mouse; conditions: 25 mg/kg i.p. every 48 hrs, 10 days
Experimental: Endogenous S1P from the blood and surrounding tissue could supply a wound with pro-angiogenic stimuli. The ability of SPHINGOMAB to reduce endogenous S1P in a wound was investigated. Optimally stimulated plugs (Matrigel supplemented with 0.5 μg/mL bFGF or […] VEGF) were implanted into mice. Mice received i.p. injections of 25 mg/kg SPHINGOMAB or saline every 48 hrs starting 1 day prior to Matrigel implantation. Each treatment group (Matrigel, Matrigel plus GF or Matrigel plus GF and administered SPHINGOMAB) consisted of a minimum of 6 mice. After 10 days, the mice were treated with heparin, injected with Isolectin B4-FITC, the plugs excised, embedded in OCT freezing medium and sectioned.

[4] = tested on: CNV lesions; assay: Murine laser-induced CNV model (Example 4); format: in vivo, mouse; conditions: 0.5 μg
Experimental: Female C57BL6/J mice were subjected to laser-induced rupture of Bruch's membrane and administered either 0.5 μg of Sphingomab or an isotype-matched non-specific (NS) antibody diluted in 2 μl of physiological saline. Mice were sacrificed 14 and 28 days after laser rupture.
To induce CNV lesions, the pupils were dilated with ophthalmic tropicamide (0.5%) and phenylephrine (2.5%). A coverslip was placed on the eye. An Oculight GL 532 nm (Iridex Corporation, Mountain View, Calif.) coupled to a slit lamp set to deliver a 100 msec pulse at 150 mW with a 50 μm spot size was used to rupture Bruch's membrane in three quadrants of the right eye located approximately 50 μm from the optic disc at relative 9, 12 and 3 o'clock positions. The left eye served as an uninjured control in all cases. Any lesion not associated with a vapor bubble or lesions that became confluent were excluded from analysis. […]
To assess collagen deposition, the sclera-choroid-RPE complex was stained with Masson's Trichrome. […] Approximately 30 sections per lesion were evaluated. Quantitation of the volume of collagen deposition was calculated in the same manner as described for CNV lesion volume.
Captured digital images were evaluated morphometrically using ImageJ software (Research Services Branch, National Institutes of Health, Bethesda, Md.).

[5] = tested on: HUVECs; assay: HUVEC tube formation on Matrigel; format: cell-based, human; conditions: co-incubated with S1P; GF-reduced Matrigel
Experimental: Experiments were performed as described by Visentin et al. (Cancer Cell 2006 March; 9(3):225-38).

B1: LT1002: murine monoclonal antibody to S1P, IgG1 kappa, hybridoma clone 306D326.26 (antibody, listed as Mus sp., V domains shown)
VH: QAHLQQSDAELVKPGASVKISCKVSGFIFIDHTIHWMKQRPEQGLEWIGCISPRHDITKYNEMFRGKATLTADKSSTTAYIQVNSLTFEDSAVYFCARGGFYGSTIWFDFWGQGTTLTVS
VL: ETTVTQSPASLSMAIGEKVTIRCITTTDIDDDMNWFQQKPGEPPNLLISEGNILRPGVPSRFSSSGYGTDFLFTIENMLSEDVADYYCLQSDNLPFTFGSGTKLEIK
B1 was tested. Which “perivascular fibrosis after MI” value [1] did it give?
The value was “almost complete abrogation of perivascular fibrosis”.

And the “Percent inhibition of lesion size” value [2]?
The value was “approximately 80%”.

And the “decrease in neovascularization of VEGF-containing plugs vs saline-treated” value [3]?
The value was 5 fold.

And the “decrease in neovascularization of bFGF-containing plugs vs saline-treated” value ([3]; 0.5 μg/mL bFGF)?
The value was 8.5 fold.

What about the choroidal neovascularization ([4]; 14 and 28 days after laser-induced rupture of Bruch's membrane) of the same molecule?
The choroidal neovascularization was “dramatically attenuates”.

What about the “fibrosis associated with CNV lesion formation” value ([4]; 28 days after laser rupture, Masson's Trichrome) of the same molecule?
The value was “significantly reduces”.

What about the “capillary-like structure (tube) formation” value [5] of the same molecule?
Its value is “failed to form capillary-like structures”.

— patent US8614103B2, “Compositions and methods for treating sphingosine-1-phosphate (S1P) related ocular diseases and conditions” (Lpath, Inc., priority 2006, dated 2013)
